The source of these data is patent US20120082676A1 (RESEARCH FOUNDATION OF STATE UNIVERSITY OF NEW YORK, published 2012).

In assay [1] the target is T1, high molecular weight kininogen (HK) (UniProt P01042 19-644).
T1 sequence (looked up): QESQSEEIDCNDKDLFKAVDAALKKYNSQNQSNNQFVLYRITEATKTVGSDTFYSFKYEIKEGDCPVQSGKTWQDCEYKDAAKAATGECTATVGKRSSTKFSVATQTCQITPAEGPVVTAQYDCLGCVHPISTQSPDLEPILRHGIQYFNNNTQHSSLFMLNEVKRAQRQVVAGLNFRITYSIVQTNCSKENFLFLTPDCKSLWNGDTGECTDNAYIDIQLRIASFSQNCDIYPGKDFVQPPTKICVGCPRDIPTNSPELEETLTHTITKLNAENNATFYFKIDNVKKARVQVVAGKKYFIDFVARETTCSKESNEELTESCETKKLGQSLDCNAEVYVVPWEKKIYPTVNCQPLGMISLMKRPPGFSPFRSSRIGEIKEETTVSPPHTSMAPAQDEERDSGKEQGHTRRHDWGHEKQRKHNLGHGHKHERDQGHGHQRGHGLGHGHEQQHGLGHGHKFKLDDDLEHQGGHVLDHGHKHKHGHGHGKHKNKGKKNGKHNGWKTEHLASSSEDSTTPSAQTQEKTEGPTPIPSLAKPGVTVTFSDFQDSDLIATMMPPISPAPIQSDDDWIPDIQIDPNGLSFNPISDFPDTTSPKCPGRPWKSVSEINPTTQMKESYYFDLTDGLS
As to the kind of experiment: solid phase ELISA, peptide on the plate. An excerpt:
Several peptides were synthesized that correspond with the gC1q-R domains of very high negative charge and, which based on their location in the crystal structure on the solution-face, are hypothesized to interact with solution-phase ligands.
On the technique in general: An ELISA detects its analyte on a solid surface through an enzyme-linked reagent.

Assay [2] addresses T1, high molecular weight kininogen (HK). Briefly: HK binding to recombinant gC1q-R deletion mutants (FIG. 7).

As for EDEVGQEDEAESD (Synthetic peptide coated on ELISA wells) [gC1q-R peptide (amino acids 190-202)], in assay [1], the binding result is given as “binds”.

B1: gC1q-R deletion mutant lacking residues 204-218 (receptor, human, UniProt Q07021 74-282, looked up)
chain: LHTDGDKAFVDFLSDEIKEERKIQKHKTLPKMSGGWELELNGTEAKLVRKVAGEKITVTFNINNSIPPTFDGEEEPSQGQKVEEQEPELTSTPNFVVEVIKNDDGKKALVLDCHYPEDEVGQEDEAESDIWKDTNYTLNTDSLDWALYDHLMDFLADRGVDNTFADELVELSTALEHQEYITFLEDLKSFVKSQ
notes: also called mutant lacking these residues
On to B1, for which, in assay [2], the binding result is given as “no binding”.
